These results are taken from patent US20250000991A1 (Eli Lilly, published 2025).

The target of assay [1] is T1, human nectin-4 on cells (human, UniProt Q96NY8 32-510).
T1 construct: also called Nectin-4 receptor
T1 sequence: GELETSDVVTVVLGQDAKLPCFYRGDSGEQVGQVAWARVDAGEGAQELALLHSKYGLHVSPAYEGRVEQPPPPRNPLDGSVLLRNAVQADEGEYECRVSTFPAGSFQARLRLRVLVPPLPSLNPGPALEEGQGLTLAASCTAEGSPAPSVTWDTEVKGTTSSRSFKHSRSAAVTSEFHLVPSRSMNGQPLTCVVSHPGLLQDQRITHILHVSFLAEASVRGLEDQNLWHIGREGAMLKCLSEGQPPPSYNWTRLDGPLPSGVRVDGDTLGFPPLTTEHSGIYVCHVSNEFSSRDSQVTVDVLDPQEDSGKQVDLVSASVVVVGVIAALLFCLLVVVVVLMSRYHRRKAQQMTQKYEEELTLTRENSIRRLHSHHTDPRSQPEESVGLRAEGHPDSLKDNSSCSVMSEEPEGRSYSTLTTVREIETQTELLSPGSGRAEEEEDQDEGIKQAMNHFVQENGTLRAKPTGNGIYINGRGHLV
Briefly: flow cytometry, differentiated normal human epidermal keratinocytes (HEKα). For orientation: In flow cytometry, cells or beads pass a laser one at a time.

Assay [2] concerns the target T1, human nectin-4 on cells. The experiment in a line: flow cytometry, SUM190PT cells (high endogenous nectin-4).
In assay [3] the target is T2, human Nectin-4-eGFP on T24 cells (clone 3) (human, UniProt Q96NY8 32-510).
T2 sequence: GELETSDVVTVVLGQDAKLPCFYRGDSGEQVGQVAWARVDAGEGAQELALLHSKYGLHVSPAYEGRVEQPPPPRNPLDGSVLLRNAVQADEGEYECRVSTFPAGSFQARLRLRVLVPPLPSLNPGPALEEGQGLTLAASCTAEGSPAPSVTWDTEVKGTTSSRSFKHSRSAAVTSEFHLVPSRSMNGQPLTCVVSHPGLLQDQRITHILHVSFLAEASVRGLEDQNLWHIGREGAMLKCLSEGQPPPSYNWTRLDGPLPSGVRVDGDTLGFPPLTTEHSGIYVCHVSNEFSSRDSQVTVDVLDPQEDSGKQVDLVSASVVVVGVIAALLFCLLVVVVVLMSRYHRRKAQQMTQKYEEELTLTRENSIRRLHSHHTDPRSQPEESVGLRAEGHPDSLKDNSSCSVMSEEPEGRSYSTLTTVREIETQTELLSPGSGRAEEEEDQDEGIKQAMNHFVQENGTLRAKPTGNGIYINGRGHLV
Briefly: cell-based or functional assay.

Assay [4] has as its target T1, human nectin-4 on cells. Briefly: flow cytometry, NCI-H1781 cells (low endogenous nectin-4).
Assay [5] has as its target T3, recombinant HIS-tagged cyno nectin-4 (Acro Biosystems Cat. No. NE4-C52H4) (cyno, UniProt A0A2K5WES1 32-349).
T3 construct: Bought protein; HIS tag not described
T3 sequence: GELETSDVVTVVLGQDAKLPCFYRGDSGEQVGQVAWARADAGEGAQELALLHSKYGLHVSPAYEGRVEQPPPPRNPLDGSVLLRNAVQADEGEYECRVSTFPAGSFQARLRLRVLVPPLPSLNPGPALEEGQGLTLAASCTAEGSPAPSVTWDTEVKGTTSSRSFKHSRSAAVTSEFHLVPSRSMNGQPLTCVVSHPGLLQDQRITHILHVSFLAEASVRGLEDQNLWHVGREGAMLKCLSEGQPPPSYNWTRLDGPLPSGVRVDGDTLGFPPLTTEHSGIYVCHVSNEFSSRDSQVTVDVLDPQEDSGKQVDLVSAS
The experiment in a line: SPR Biacore 8K+, ADC captured via anti-human Fc, nectin-4 analyte, 37 C.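 Further: Nectin-4 injected over captured ADC at 0 to 600 nM for 2 min association, then 10 min dissociation, with a reference flow cell lacking ADC.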 In general terms: In SPR one partner is held on a chip, and binding of the other changes the refractive index at the surface.

The target in assay [6] is T4, recombinant HIS-tagged human nectin-4 (Acro Biosystems Cat. No. NE4-H52H3) (human, UniProt Q96NY8 32-349).
T4 construct: Bought protein; not shown: HIS tag
T4 sequence: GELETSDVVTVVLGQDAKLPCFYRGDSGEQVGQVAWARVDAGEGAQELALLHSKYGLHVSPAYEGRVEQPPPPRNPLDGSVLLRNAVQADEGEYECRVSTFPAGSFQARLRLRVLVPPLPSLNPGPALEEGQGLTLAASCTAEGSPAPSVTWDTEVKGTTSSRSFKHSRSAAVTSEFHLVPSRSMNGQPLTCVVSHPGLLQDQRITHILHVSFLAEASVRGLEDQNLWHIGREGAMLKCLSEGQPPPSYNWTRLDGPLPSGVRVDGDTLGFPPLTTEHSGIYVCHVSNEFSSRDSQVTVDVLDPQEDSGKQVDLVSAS
The assay is described as above.

The target of assay [7] is T5, recombinant HIS-tagged rat nectin-4 (R&D Systems Cat. No. 9997-N4-050) (rat, UniProt D3ZET1 31-348).
T5 construct: Bought protein; HIS tag not described
T5 sequence: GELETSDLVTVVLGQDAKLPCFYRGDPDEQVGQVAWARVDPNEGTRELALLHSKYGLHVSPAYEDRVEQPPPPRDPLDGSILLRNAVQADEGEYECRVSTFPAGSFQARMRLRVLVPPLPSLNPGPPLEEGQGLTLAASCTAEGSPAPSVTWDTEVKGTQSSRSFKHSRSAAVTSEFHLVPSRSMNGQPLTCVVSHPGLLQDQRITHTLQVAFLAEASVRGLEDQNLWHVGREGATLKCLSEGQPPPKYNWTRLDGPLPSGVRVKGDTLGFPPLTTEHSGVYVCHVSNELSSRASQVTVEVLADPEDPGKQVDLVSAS
Described as above.

In assay [8] the target is T1, human nectin-4 on cells. The experiment in a line: cell-based or functional assay.

B1: Ab2 (antibody, human IgG1, kappa, L234A L235A, V domains shown)
VH: EVQLVESGGGLVQPGGSLRLSCAASGFTFSSYDMHWVRQATGKGLEWVSAIGTVGDTYYPGSVKGRFTISRENAKNSLYLQMNSLRAGDTAVYYCAREWNGMDVWGQGTTVTVSS
VL: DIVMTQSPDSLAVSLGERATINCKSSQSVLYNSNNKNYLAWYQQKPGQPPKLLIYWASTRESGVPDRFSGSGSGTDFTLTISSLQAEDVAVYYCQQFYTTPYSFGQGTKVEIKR
notes: Unconjugated antibody; also called Antibody 2; nectin-4 antibody Ab2
As a reminder, the EC50 is the concentration at which the effect is half-maximal. A low value points to a more potent agent. Regarding B1, in the assay with human nectin-4 on cells [1], the EC50 was found to be 0.05 nM. In the assay with human nectin-4 on cells [2], the “% of enfortumab (Average Max MFI)” value was found to be 87.2%, the “Average Max MFI” value turned out to be 920000 MFI and the EC50 was determined as 0.19 nM. Besides, in assay [3], the “% activity (max GFP signal loss compared to enfortumab mAb (100%))” value turned out to be 113% and the “EC50 (nM) of nectin-4-eGFP signal loss” value stood at 1.43 nM. Besides, in the assay with human nectin-4 on cells [4], the “% of enfortumab (Average Max MFI)” value came to 95.7%, the “Average Max MFI” value came to 87000 MFI and a half-maximal response (EC50) required 0.06 nM.

B2: Ab2 ADC (Ab2 conjugated as in Formula XI, DAR of 8) (antibody, human IgG1, kappa, L234A L235A, V domains shown)
VH: EVQLVESGGGLVQPGGSLRLSCAASGFTFSSYDMHWVRQATGKGLEWVSAIGTVGDTYYPGSVKGRFTISRENAKNSLYLQMNSLRAGDTAVYYCAREWNGMDVWGQGTTVTVSS
VL: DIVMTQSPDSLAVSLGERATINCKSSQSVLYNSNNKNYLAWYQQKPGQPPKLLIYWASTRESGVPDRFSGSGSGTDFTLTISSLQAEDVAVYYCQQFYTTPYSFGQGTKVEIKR
modifications: camptothecin analog linker-payload of Formula XI on cysteine thiols after full reduction, DAR of 8 per antibody; positions not given
notes: Antibody-drug conjugate of Ab2; also called Ab2 (ADC column)
Usually Kd stands for the free concentration of one partner at which half of the binding sites on the other are occupied at equilibrium, for simple one-to-one binding. In general, koff refers to the first-order rate constant of dissociation. A word on the kon: it is the rate constant with which the complex forms. Take B2: in assay [5], the dissociation constant Kd turned out to be 19.8 nM, the koff amounted to 0.02 s⁻¹ and the kon was determined as 1.01e+06 M⁻¹ s⁻¹. In assay [6], the equilibrium dissociation constant (Kd) worked out at 21 nM, the koff is 0.0214 s⁻¹ and the kon was 1.02e+06 M⁻¹ s⁻¹. Further, in assay [7], the Kd came to 108 nM, the koff amounted to 0.0753 s⁻¹ and the kon is 695000 M⁻¹ s⁻¹. This molecule also returned an EC50 with human nectin-4 on cells [1] of 0.05 nM. In the assay with human nectin-4 on cells [8], the “Cytotoxicity IC50, NCI H1781 cells” value was determined as 0.0473 nM and the “Cytotoxicity IC50, T24 Nectin-4 clone 108 cells” value came out at 0.07 nM. In assay [3], the “% activity (max GFP signal loss compared to enfortumab mAb (100%))” value is 132% and the “EC50 (nM) of nectin-4-eGFP signal loss” value worked out at 1.96 nM.
